Assay results: paper PMC3410980 (Bioconjugate chemistry, 2012)
Non-standard residues stand in square brackets, D forms with d. Residues, ends and D or L forms follow the SMILES beside them. *: point of attachment. DOTA = O=C(O)CN1CCN(CC(=O)O)CCN(CC(=O)*)CCN(CC(=O)O)CC1; Nspe = C[C@H](NCC(=O)O)c1ccccc1; Nphe = O=C(O)CNCc1ccccc1; Nlys = NCCCCNCC(=O)O

Legend:
[1] = hydrophobicity by reverse phase analytical HPLC; assay type: physicochemical; settings: retention time in reverse phase HPLC column (C18, 55 °C)
[2] = tail vein injection, 0.25-24 h
in vivo = settings: Balb/c, mouse, total radioactivity

**Q.** Which “hydrophobicity (tR in minutes)” value [1] does the source give for `NCCCCN(CC(=O)N(CC(=O)N(CC(=O)N(CCCCN)CC(=O)N(CC(=O)N(CC(=O)N(CCCCN)CC(=O)N(CC(=O)N(CC(=O)N(CCCCN)CC(=O)N(CC(=O)N(CC(N)=O)Cc1ccccc1)Cc1ccccc1)Cc1ccccc1)Cc1ccccc1)Cc1ccccc1)Cc1ccccc1)Cc1ccccc1)Cc1ccccc1)C(=O)CN1CCN(CC(=O)O)CCN(CC(=O)O)CCN(CC(=O)O)CC1` [Compound 2] ({DOTA}-[Nlys][Nphe][Nphe][Nlys][Nphe][Nphe][Nlys][Nphe][Nphe][Nlys][Nphe][Nphe]-NH2) here?
**A.** 24.1 min

**Q.** Which “hydrophobicity (tR in minutes)” value [1] does the source give for `C[C@@H](c1ccccc1)N(CC(N)=O)C(=O)CN(CCCCN)C(=O)CN(C(=O)CN(C(=O)CN(CCCCN)C(=O)CN(C(=O)CN(C(=O)CN(CCCCN)C(=O)CN(C(=O)CN(C(=O)CN(CCCCN)C(=O)CN1CCN(CC(=O)O)CCN(CC(=O)O)CCN(CC(=O)O)CC1)[C@@H](C)c1ccccc1)[C@@H](C)c1ccccc1)[C@@H](C)c1ccccc1)[C@@H](C)c1ccccc1)[C@@H](C)c1ccccc1)[C@@H](C)c1ccccc1` [Compound 3] ({DOTA}-[Nlys][Nspe][Nspe][Nlys][Nspe][Nspe][Nlys][Nspe][Nspe][Nlys][Nspe]-NH2) here?
**A.** 23.9 min

**Q.** For `C[C@@H](c1ccccc1)N(CC(N)=O)C(=O)CN(C(=O)CN(CCCCN)C(=O)CN(C(=O)CN(C(=O)CN(CCCCN)C(=O)CN(C(=O)CN(C(=O)CN(CCCCN)C(=O)CN(C(=O)CN(C(=O)CN(CCCCN)C(=O)CN1CCN(CC(=O)O)CCN(CC(=O)O)CCN(CC(=O)O)CC1)[C@@H](C)c1ccccc1)[C@@H](C)c1ccccc1)[C@@H](C)c1ccccc1)[C@@H](C)c1ccccc1)[C@@H](C)c1ccccc1)[C@@H](C)c1ccccc1)[C@@H](C)c1ccccc1` [^64Cu-1, metal not drawn] ({DOTA}-[Nlys][Nspe][Nspe][Nlys][Nspe][Nspe][Nlys][Nspe][Nspe][Nlys][Nspe][Nspe]-NH2), which “excretion route, kidney activity and clearance seen by PET” value (“excretion route” for short) [2] is on record?
**A.** main excretion route is likely hepatic

**Q.** And the tissue uptake at 2 h (in vivo; kidney, iv)?
**A.** 14.4 ± 0.9 %ID/g

**Q.** And the tissue uptake at 2 h (in vivo; liver, iv)?
**A.** 138 ± 13.4 %ID/g

**Q.** What about the tissue uptake at 24 h (in vivo; liver, iv) of the same compound?
**A.** 95.6 ± 10.5 %ID/g

**Q.** What about the tissue uptake at 2 h (in vivo; stomach, po) of the same compound?
**A.** 4.82 ± 1.44 %ID/g

**Q.** And the tissue uptake at 24 h (in vivo; stomach, po)?
**A.** 0.54 ± 0.22 %ID/g

**Q.** Which “excretion route” value [2] does the source give for `NCCCCN(CC(=O)N(CC(=O)N(CC(=O)N(CCCCN)CC(=O)N(CC(=O)N(CC(=O)N(CCCCN)CC(=O)N(CC(=O)N(CC(=O)N(CCCCN)CC(=O)N(CC(=O)N(CC(N)=O)Cc1ccccc1)Cc1ccccc1)Cc1ccccc1)Cc1ccccc1)Cc1ccccc1)Cc1ccccc1)Cc1ccccc1)Cc1ccccc1)C(=O)CN1CCN(CC(=O)O)CCN(CC(=O)O)CCN(CC(=O)O)CC1` [^64Cu-2, metal not drawn] ({DOTA}-[Nlys][Nphe][Nphe][Nlys][Nphe][Nphe][Nlys][Nphe][Nphe][Nlys][Nphe][Nphe]-NH2) here?
**A.** main excretion route is likely hepatic

**Q.** And the tissue uptake at 2 h (in vivo; kidney, iv)?
**A.** 12.6 ± 2.3 %ID/g

**Q.** What about the tissue uptake at 2 h (in vivo; liver, iv) of the same compound?
**A.** 125 ± 16.8 %ID/g

**Q.** And the tissue uptake at 24 h (in vivo; liver, iv)?
**A.** 72.2 ± 11.3 %ID/g

**Q.** Which “excretion route” value [2] does the source give for `C[C@@H](c1ccccc1)N(CC(N)=O)C(=O)CN(CCCCN)C(=O)CN(C(=O)CN(C(=O)CN(CCCCN)C(=O)CN(C(=O)CN(C(=O)CN(CCCCN)C(=O)CN(C(=O)CN(C(=O)CN(CCCCN)C(=O)CN1CCN(CC(=O)O)CCN(CC(=O)O)CCN(CC(=O)O)CC1)[C@@H](C)c1ccccc1)[C@@H](C)c1ccccc1)[C@@H](C)c1ccccc1)[C@@H](C)c1ccccc1)[C@@H](C)c1ccccc1)[C@@H](C)c1ccccc1` [^64Cu-3, metal not drawn] ({DOTA}-[Nlys][Nspe][Nspe][Nlys][Nspe][Nspe][Nlys][Nspe][Nspe][Nlys][Nspe]-NH2) here?
**A.** highest kidney activity of all three peptoids

**Q.** And the “oral absorption / bioavailability” value (administered orally)?
**A.** poor bioavailability

**Q.** What about the “lower liver uptake relative to ^64Cu-1” value (intravenous) of the same compound?
**A.** more than 50%

**Q.** And the tissue uptake at 2 h (in vivo; kidney, iv)?
**A.** ~31.2 %ID/g

**Q.** What about the tissue uptake at 24 h (in vivo; kidney, iv) of the same compound?
**A.** 19.3 ± 2.6 %ID/g

**Q.** What about the tissue uptake at 2 h (in vivo; liver, iv) of the same compound?
**A.** 56.7 ± 1.8 %ID/g

**Q.** And the tissue uptake at 24 h (in vivo; liver, iv)?
**A.** 47.3 ± 4.4 %ID/g
